The values below come from patent publication US20230212268A1 (UNM RAINFOREST INNOVATIONS, published 2023).

Values joined by “and” are separate entries in the source; they are usually repeats but may differ in a detail not shown here. Identical values can stand only once. Bounds are passed on as bounds.

Usually EC50 stands for the concentration that produces a half-maximal response.

Holding throughout (test): ELISA dose response, GP coated
Assay [1] deals with T1, recombinant EBOV glycoprotein (EBOV (Zaire ebolavirus), UniProt Q05320 33-650).
T1 sequence: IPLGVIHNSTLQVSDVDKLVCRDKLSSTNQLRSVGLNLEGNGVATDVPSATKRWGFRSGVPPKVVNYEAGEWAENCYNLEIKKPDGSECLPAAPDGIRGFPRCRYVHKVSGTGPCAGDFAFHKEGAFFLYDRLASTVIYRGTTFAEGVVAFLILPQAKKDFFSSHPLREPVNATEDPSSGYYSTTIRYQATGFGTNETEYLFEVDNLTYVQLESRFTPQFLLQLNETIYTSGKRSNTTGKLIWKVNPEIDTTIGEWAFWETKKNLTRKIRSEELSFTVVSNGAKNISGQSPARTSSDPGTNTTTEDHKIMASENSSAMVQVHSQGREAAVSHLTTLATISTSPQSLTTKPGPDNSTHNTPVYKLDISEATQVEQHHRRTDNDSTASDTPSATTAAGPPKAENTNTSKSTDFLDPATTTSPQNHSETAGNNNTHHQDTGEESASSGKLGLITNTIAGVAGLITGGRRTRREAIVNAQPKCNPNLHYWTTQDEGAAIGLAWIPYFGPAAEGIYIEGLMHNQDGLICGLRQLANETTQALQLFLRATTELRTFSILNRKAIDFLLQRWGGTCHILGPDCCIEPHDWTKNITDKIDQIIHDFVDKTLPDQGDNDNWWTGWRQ

Assay [2] addresses T2, recombinant SUDV glycoprotein (SUDV (Sudan ebolavirus), UniProt Q7T9D9 33-650).
T2 sequence: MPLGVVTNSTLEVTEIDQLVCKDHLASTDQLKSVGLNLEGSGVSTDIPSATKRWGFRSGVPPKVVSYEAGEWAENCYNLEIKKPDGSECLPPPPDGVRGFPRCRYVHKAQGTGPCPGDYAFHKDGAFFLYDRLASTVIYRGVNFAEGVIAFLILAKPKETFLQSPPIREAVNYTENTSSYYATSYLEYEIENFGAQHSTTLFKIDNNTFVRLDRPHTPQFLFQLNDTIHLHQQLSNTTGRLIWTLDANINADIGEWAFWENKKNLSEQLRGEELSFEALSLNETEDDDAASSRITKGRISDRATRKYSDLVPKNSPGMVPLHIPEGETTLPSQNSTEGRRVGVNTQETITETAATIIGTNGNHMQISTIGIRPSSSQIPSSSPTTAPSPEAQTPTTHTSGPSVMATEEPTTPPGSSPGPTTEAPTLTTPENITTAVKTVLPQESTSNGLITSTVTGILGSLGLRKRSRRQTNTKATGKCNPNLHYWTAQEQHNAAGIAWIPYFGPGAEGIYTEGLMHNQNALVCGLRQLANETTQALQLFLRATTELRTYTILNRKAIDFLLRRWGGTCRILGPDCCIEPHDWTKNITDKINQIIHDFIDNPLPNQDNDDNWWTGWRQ

For assay [3], the target named is T3, recombinant TAFV glycoprotein (TAFV (Tai Forest virus), UniProt Q66810 33-650).
T3 sequence: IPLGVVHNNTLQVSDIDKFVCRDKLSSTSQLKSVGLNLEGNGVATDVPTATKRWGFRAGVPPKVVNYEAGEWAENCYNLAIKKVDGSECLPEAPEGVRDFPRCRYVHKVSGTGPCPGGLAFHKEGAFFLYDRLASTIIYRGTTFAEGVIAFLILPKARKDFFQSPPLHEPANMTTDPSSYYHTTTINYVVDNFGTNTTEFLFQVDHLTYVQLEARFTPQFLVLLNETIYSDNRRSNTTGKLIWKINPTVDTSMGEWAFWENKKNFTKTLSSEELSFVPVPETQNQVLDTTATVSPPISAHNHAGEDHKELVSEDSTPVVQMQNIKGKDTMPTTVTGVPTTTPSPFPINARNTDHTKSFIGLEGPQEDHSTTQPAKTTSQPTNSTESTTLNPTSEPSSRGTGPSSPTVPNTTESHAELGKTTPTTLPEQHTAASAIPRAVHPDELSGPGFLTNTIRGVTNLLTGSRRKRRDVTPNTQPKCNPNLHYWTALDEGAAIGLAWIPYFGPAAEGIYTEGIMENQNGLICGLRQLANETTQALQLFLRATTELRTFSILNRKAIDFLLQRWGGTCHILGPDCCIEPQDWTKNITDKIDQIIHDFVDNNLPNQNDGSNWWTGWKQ

Assay [4] concerns the target T4, recombinant MARV glycoprotein (MARV (marburgvirus, Ravn), UniProt Q1PDC7 19-648).
T4 sequence: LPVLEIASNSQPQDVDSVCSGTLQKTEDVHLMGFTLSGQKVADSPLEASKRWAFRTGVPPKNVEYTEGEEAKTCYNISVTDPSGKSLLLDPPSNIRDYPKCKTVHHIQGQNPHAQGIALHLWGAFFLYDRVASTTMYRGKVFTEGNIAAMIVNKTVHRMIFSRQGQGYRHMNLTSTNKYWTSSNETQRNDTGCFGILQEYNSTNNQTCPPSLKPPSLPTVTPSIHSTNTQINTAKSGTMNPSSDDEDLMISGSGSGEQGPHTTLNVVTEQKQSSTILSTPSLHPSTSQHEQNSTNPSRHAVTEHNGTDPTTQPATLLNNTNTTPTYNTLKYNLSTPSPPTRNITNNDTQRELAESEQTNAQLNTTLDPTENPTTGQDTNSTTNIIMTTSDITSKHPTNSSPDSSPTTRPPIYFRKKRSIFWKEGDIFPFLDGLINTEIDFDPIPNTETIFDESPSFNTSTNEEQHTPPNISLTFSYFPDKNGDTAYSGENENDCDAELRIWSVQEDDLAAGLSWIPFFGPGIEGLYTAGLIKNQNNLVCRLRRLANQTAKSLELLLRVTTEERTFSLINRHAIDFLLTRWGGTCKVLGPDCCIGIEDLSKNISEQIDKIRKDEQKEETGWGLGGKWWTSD

B1: EbovGPscFv4-2 (scFv)
scFv: MAWSHPQFEKTGSGGAELVKSGASVKLSCTASGFNIKDDYMHWVKQRPEQGLEWIGWIDPENGDTEYASKFQGKATITADTSSNTAYLQLSSLTSEDTAVYYCTTYYYGSAWFAYWGQGTLVTVSAGGGGSGGGGSGGGGSGGGGSASLSVSVGETVTITCRASGNIHNYLAWYQQKQGKSPQLLVYNAKTLADGVPSRFSGSGSGTQYSLKINNLQPEDFGSYYCQHFWSTPYTFGGGTKLEIKRADAAPTVSIFPPSSEQLTSGGASVVCFLNNFTHCQELQQDECS
Consider B1, for which the EC50 was 4.09 µg/mL and < 9 µg/mL in assay [1]; 5.3 µg/mL and < 9 µg/mL in assay [2]; < 9 µg/mL and 6.95 µg/mL in assay [3]; 4.51 µg/mL and < 9 µg/mL in assay [4].
